Measurements: patent US20240108688A1, “Inhibitors of the tissue factor-protease activated receptor 2 (TF-PAR2) signaling pathway for use in the treatment or prevention of heart failure (HF) and associated or resulting diseases” (priority 2020, published 2024)

B1: NAPc2: single-chain, non-glycosylated 85 amino acid protein, 9732 Da; blocks TF signaling and coagulation via inhibited TF-FVIIa-FX(a) complex (protein, listed as Ancylostoma caninum)
chain: KATMQCGENEKYDSCGSKECDKKCKYDGVEEEDDEEPNVPCLVRVCHQDCVCEEGFYRNKDDKCVSAEDCELDNMDFIYPGTRN

Assays:
[1] = system: permanent LAD ligation mouse model of MI
Experimental: B), High-frequency ultrasound echocardiography obtained in parasternal long axis (PLAX) with measurement of left ventricular ejection fraction (LVEF, %) and left ventricular end diastolic volume (LVEDV, μl) on day 7 after operation. […] Ordinary one-way ANOVA, Sidak's multiple comparison test, n=4-7 animals per group.
C), Experimental design: Mice were injected with NAPc2 (1 mg/kg/d) once daily by i.p. injection from day 1 through day 7. D), High-frequency echocardiography obtained in parasternal long axis (PLAX) with measurement of LVEF, LVEDV on day 7 after LAD ligation. E), Representative blots for protein expression analysis of pERK1/2, NOX2, TGF-β1 and α-SMA in infarcted myocardium obtained from vehicle or NAPc2 treated mice. F-H, Mice were injected with NAPc2 (1 mg/kg/d) and/or vehicle (1 mg/kg/d) once daily by i.p. injection from day 1 through day 7 followed by longitudinal analysis. […] Echocardiographic studies over 4 weeks from day 7 for LVEF (%), LVEDV (p1) in PLAX M-mode; two-way ANOVA, Bonferroni's multiple comparisons test, n=6-12 animals per each group (G). Kaplan-Meier survival analysis of LAD ligated versus sham operated NAPc2 876 and vehicle treated mice after 4 weeks. Log-rank (Mantel-Cox) test, n=7-15 animals per group (H).

[2] = prevention of venous thromboembolism, total knee replacement patients (ref 27); cited from earlier work
[3] = human, in vivo; cited from earlier work
[4] = system: human monocytes; test: Isolated human monocytes exposed to hypoxia (OGD) plus inflammatory cytokine cocktail, western blot; type: cell-based; settings: NAPc2 200 ng/ml; cytokine cocktail 20 ng/ml plus hypoxia
Excerpt: Representative blots and quantification. […] Representative images and quantification of replicates.
Monocytes isolation and in vitro culture: Bone marrow derived cell suspensions were isolated by flushing femurs and tibias of 8-12 weeks old mice. Cell aggregates were removed by gentle pipetting and the cell lysates were passed through a 70 μm nylon strainer to remove the cell debris. Furthermore, to enrich monocytes population, mouse monocyte isolation Kit ([…] Technologies Inc., Vancouver, BC, Canada) was used according to standard protocols provided by the manufacturer. To mimic in vivo ischemic conditions, a protocol of oxygen-glucose-deprivation (OGD) is applied along with the cytokine cocktail mix (IL-6, TNF-α and MCP-1) at concentrations of 20 ng/ml for 4 hours followed by the protein expression analysis of pERK1/2, NOX2 and TGF-β1 on isolated monocytes. […] For blocking TF-FVIIa signaling on human monocytes, isolated monocytes from healthy individuals were treated with NAPc2 in the presence of OGD along with the cytokine cocktail mix followed by the protein expression analysis of pERK1/2, NOX2 and TGF-β1.

[5] = NAPc2 1 mg/kg/d i.p. day 1-7, western blot
[6] = NAPc2 1 mg/kg/d i.p. starting 1 day after MI, 7 d after LAD ligation

Molecule | cardiac function in sham-operated mice ([1]; trametinib 1 mg/kg/d oral, sham surgery) | cardiac function (LVEF, LVEDV by echocardiography) ([1]; NAPc2 1 mg/kg/d i.p. day 1-7, day 7 after LAD ligation) | cardiac infiltration of CD11b+ myeloid cells ([1]; NAPc2 1 mg/kg/d i.p. day 1-7, flow cytometry of infarcted myocardium) | ERK1/2 phosphorylation in the infarcted heart [1, 5] | NOX2 expression in the infarcted heart [1, 5] | TGF-β1 activation in the infarcted heart [1, 5] | up-regulation of the downstream target α-SMA in the infarcted heart [1, 5] | levels of NOX2 in circulating myeloid cells (PBMCs) [1, 6] | levels of active TGF-β1 in circulating myeloid cells (PBMCs) [1, 6] | cardiac fibrosis (fibrotic areas normalized to surface area) ([1]; short term NAPc2 1 mg/kg/d i.p. from 1 d until 7 d post MI, longitudinal analysis, compared to vehicle) | survival (Kaplan-Meier, 4 weeks) ([1]; short term NAPc2 1 mg/kg/d i.p. from 1 d until 7 d post MI, LAD ligated mice) | cardiac function in chronic MI (LVEF, LVEDV over 4 weeks) ([1]; short term NAPc2 1 mg/kg/d i.p. from 1 d until 7 d post MI, compared to vehicle) | antithrombotic effect [2] | safety [3] | ERK1/2 phosphorylation [4] | NOX2 expression [4] | TGF-β1 activation [4]
CC(=O)Nc1cccc(-n2c(=O)n(C3CC3)c(=O)c3c(Nc4ccc(I)cc4F)n(C)c(=O)c(C)c32)c1 [trametinib, reference compound] | no significant effects |  |  |  |  |  |  |  |  |  |  |  |  |  |  |  | 
B1 |  | improved cardiac function | attenuated | diminished | diminished | diminished | diminished | attenuated | attenuated | significantly reduced | improved survival | improved cardiac function | has been demonstrated | documented safety | reduced | suppressed | suppressed
